Experimental data: PMC6784111

Experiments:
Experiment in all cases: SPR; 40 RU of each antibody immobilized on a CM5 chip; oxMIF (MIF treated with 0.2% Proclin300) injected at 3–25 nM in HBS-EP (HEPES 10 mM, NaCl 150 mM, EDTA 3 mM, 0.005% Tween-20); BIAcore T200; 25 °C; 1:1 Langmuir model
BaxM159 variant 5-DIQMAE = molecular target: BaxM159 variant 5-DIQMAE
[1] = molecular target: BaxM159 variant 2-DIQMAQ-K (parental anti-oxMIF antibody with the heavy chain C-terminal lysine)
BaxM159 variant 6-EIVLGQ = molecular target: BaxM159 variant 6-EIVLGQ
BaxM159 variant 3-EIVLAQ = molecular target: BaxM159 variant 3-EIVLAQ
BaxM159 variant 8-DIQMGE = molecular target: BaxM159 variant 8-DIQMGE
BaxM159 variant 4-DIQMGQ = molecular target: BaxM159 variant 4-DIQMGQ
BaxM159 variant 9-EIVLGE = molecular target: BaxM159 variant 9-EIVLGE
[2] = molecular target: BaxM159 variant 1-DIQMAQ (parental anti-oxMIF antibody without the heavy chain C-terminal lysine)
BaxM159 variant 7-EIVLAE = molecular target: BaxM159 variant 7-EIVLAE

B1: oxidized macrophage migration inhibitory factor (oxMIF) (natural protein)
chain: MPMFIVNTNVPRASVPDGFLSELTQQLAQATGKPPQYIAVHVVPDQLMAFGGSSEPCALCSLHSIGKIGGAQNRSYSKLLCGLLAERLRISPDRVYINYYDMNAANVGWNNSTFA
modifications: converted to its oxidized form by treatment with 0.2% Proclin300
Question: For B1, which Kd (BaxM159 variant 5-DIQMAE) is on record?
Answer: 2.5 nM

Question: What about the koff (BaxM159 variant 5-DIQMAE) of the same binder?
Answer: 0.0004 s⁻¹

Question: And the kon (BaxM159 variant 5-DIQMAE)?
Answer: 160000 M⁻¹ s⁻¹

Question: And the Kd [1]?
Answer: 3 nM

Question: What about the koff [1] of the same binder?
Answer: 0.00038 s⁻¹

Question: What about the kon [1] of the same binder?
Answer: 130000 M⁻¹ s⁻¹

Question: And the Kd (BaxM159 variant 6-EIVLGQ)?
Answer: 2.7 nM

Question: And the koff (BaxM159 variant 6-EIVLGQ)?
Answer: 0.00064 s⁻¹

Question: And the kon (BaxM159 variant 6-EIVLGQ)?
Answer: 260000 M⁻¹ s⁻¹

Question: What about the Kd (BaxM159 variant 3-EIVLAQ) of the same binder?
Answer: 1.5 nM

Question: What about the koff (BaxM159 variant 3-EIVLAQ) of the same binder?
Answer: 0.00031 s⁻¹

Question: And the kon (BaxM159 variant 3-EIVLAQ)?
Answer: 200000 M⁻¹ s⁻¹

Question: What about the Kd (BaxM159 variant 8-DIQMGE) of the same binder?
Answer: 4.2 nM

Question: What about the koff (BaxM159 variant 8-DIQMGE) of the same binder?
Answer: 0.00054 s⁻¹

Question: What about the kon (BaxM159 variant 8-DIQMGE) of the same binder?
Answer: 130000 M⁻¹ s⁻¹

Question: What about the Kd (BaxM159 variant 4-DIQMGQ) of the same binder?
Answer: 4.3 nM

Question: And the koff (BaxM159 variant 4-DIQMGQ)?
Answer: 0.00056 s⁻¹

Question: And the kon (BaxM159 variant 4-DIQMGQ)?
Answer: 160000 M⁻¹ s⁻¹

Question: And the Kd (BaxM159 variant 9-EIVLGE)?
Answer: 1.4 nM

Question: And the koff (BaxM159 variant 9-EIVLGE)?
Answer: 0.00044 s⁻¹

Question: And the kon (BaxM159 variant 9-EIVLGE)?
Answer: 310000 M⁻¹ s⁻¹

Question: What about the Kd [2] of the same binder?
Answer: 2.6 nM

Question: And the koff [2]?
Answer: 0.00029 s⁻¹

Question: And the kon [2]?
Answer: 110000 M⁻¹ s⁻¹

Question: What about the Kd (BaxM159 variant 7-EIVLAE) of the same binder?
Answer: 2.4 nM

Question: What about the koff (BaxM159 variant 7-EIVLAE) of the same binder?
Answer: 0.00044 s⁻¹

Question: What about the kon (BaxM159 variant 7-EIVLAE) of the same binder?
Answer: 180000 M⁻¹ s⁻¹
